B1: T8V/S10A/K15L variant Fyn SH2 domain (designed binder)
chain: MKIEEHHHHHHSSGRENLYFQGGAAQPAAPVDSIQAEEWYFGKLGRKDAERQLLSFGNPRGTFLIRESETVKGAYALSIRDWDDMKGDHVKHYLIRKLDNGGYYITTRAQFETLQQLVQHYSERAAGLSSRLVVPSHKGAAA
B2: A8V/S10A/K15L variant Grb2 SH2 domain expressed as a GFP-fusion protein in HEK 293 cells (designed binder)
chain: MKPHPWFFGKIPRAKAEEMLSKQRHDGAFLIRESESVPGDFALSVKFGNDVQHFLVLRDGAGKYFLWVVKFNSLNELVDYHRSTSVSRNQQIFLRDIEQVPQQP
notes: also called TrM Grb2 SH2 domain; 8V/10A/15L-substituted Grb2 SH2 domain; not shown: GFP encoded by the pEGFPC2 vector (Clontech)
B3: T8V/C10A/K15L variant Src SH2 domain expressed as a GFP-fusion protein in HEK 293 cells (designed binder)
chain: DSIQAEEWYFGKITRRESERLLLNAENPRGTFLVRESETVKGAYALSVSDFDNAKGLNVKHYLIRKLDSGGFYITSRTQFNSLQQLVAYYSKHADGLCHRLTTVCPTSK
notes: domain: SH2 domain; also called TrM Src SH2 domain; 8V/10A/15L-substituted Src SH2 domain; not shown: GFP encoded by the pEGFPC2 vector (Clontech)
B4: wild-type Fyn SH2 domain expressed as a GFP-fusion protein in HEK 293 cells (other, human, UniProt P06241 139-249, looked up)
chain: APVDSIQAEEWYFGKLGRKDAERQLLSFGNPRGTFLIRESETTKGAYSLSIRDWDDMKGDHVKHYKIRKLDNGGYYITTRAQFETLQQLVQHYSERAAGLCCRLVVPCHKG
notes: domain: SH2 domain; also called Wt Fyn SH2 domain; Wt; not shown: GFP encoded by the pEGFPC2 vector (Clontech)

Experiments:
EGFR-pY978 peptide = molecular target: T1, EGFR-pY978 peptide; assay: fluorescence polarization in solution; reference wild-type Fyn SH2 domain
T1 construct: Synthetic pTyr-containing peptide
Method: Measurements of fluorescence polarization were conducted by titrating the SH2 domain concentration, while keeping the peptide concentration constant. Kd values were calculated with the GraphPad Prism software, by assuming the one-site binding model (GraphPad Software).

EGF receptor (EGFR) [1] = molecular target: T2, EGF receptor (EGFR) (UniProt P00533 25-1210, tyrosine-phosphorylated in the C-terminal tail (cells treated with EGF and pervanadate); sites not stated); assay: co-immunoprecipitation from HEK 293 cells
T2 construct: Endogenous receptor of HEK 293 cells; detected with an anti-EGFR rabbit polyclonal antibody; also called epidermal growth factor receptor

EGF receptor (EGFR) [2] = molecular target: T2, EGF receptor (EGFR); assay: co-immunoprecipitation from HEK 293 cells, anti-GFP and anti-EGFR antibodies
Method: HEK 293 cells were lysed with cold lysis buffer (1% NP-40, 50 mM Tris-HCl pH 7.4, 150 mM NaCl, 2 mM EDTA, 50 mM NaF, 10% Glycerol and protease inhibitor cocktail diluted at 1:1000). After centrifugation at 13,000*g for 15 min, the supernatants were collected. After clearance of the lysate with appropriate pre-immune serum and protein G (Roche), immnuoprecipitation (IP) and immunoblotting (IB) were performed.

Binder | binding result (EGF receptor (EGFR) [1]) | further results
B1 | – | fold affinity increase (Kd[wild-type] divided by Kd[variant]) (EGFR-pY978 peptide): > 1000 fold
B2 | binds | –
B3 | binds | –
B4 | – | binding result (EGF receptor (EGFR) [2]): no binding

From patent US20190271705A1 (UNIVERSITY OF WESTERN ONTARIO, published 2019)
